Measurements taken from the RNAGym collection of RNA variant scans (doi:10.1073/pnas.2313332121).

B1: TPR t1 (parent)
chain: GACCAAUCUGCCCUCAGAGCUCGAGAACAUCUUCGGAUGCAGAGGAGGCAGGCUUCGGUGGCGCGAUAGCGCCAACGUCCUCAACCUCCAAUGCAUCCCACCACAUGAUGAUGCCUGAAGAGCCUUGGUUUUUUG

Variants of: B1
Assay: polymerase ribozyme fitness, log enrichment relative to wild type (log ratio); higher = more active; in vitro selection for triplet polymerase activity
In short: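 Frozen incubation at −7 °C formed the core of a single, triplicate in vitro selection round applied to PCR-built, transcribed mutant libraries of each subunit of a heterodimeric triplet polymerase ribozyme. Extended constructs were gel-excised, captured with streptavidin beads and amplified by RT-PCR, and input and output libraries were Illumina-sequenced with a filter of ≥10 input reads and ≥1 read per output. Fitness is the logarithm of genotype enrichment relative to wild-type enrichment, with inverse-variance-weighted replicate averaging, and the logarithm is base 2.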
In the case of GACCAAUCUGCCCUCAGAGCUCGAGAACAUCUUCGGAUGCAGAGGAGGCAGGCUUCGGUGUCGCGAUAGCGCCAACGUCCUCAACCUCCAAUGCAUCCCAACACAUGAUGAUGCCUGAAGAGCCUUGGUUUUUUG, the “polymerase ribozyme fitness (log ratio)” value is reported as -1.33.
In the case of GACCAAUCUGCCCUCAGAGCUCGAGAACAUCUUCGGAUGCAGAGGAGGCAGGCUUCGGUGGCGCGAUAGCGCCAACGUCCUCAACCUCCAAUGCAUCCCAACACAUGAUGCUGCCUGAAGAGCCUUGGUUUUUUG, the “polymerase ribozyme fitness (log ratio)” value is reported as -0.305.
For GACCAAUCUGCCCUCAGAGUUCGAGAACAUCUUCGGAUGCAGAGGAGGCAGGCUUCGGUGGCGCGAUAGCGCGAACGUCCUCAACCUCCAAUGCAUCCCACCACAUGAUGAUUCCUGAAGAGCCUUGGUACUUUG, the “polymerase ribozyme fitness (log ratio)” value was -3.02.
For GACCAAUCUGCCCUCAGAGCUCGAGAACAUCUUCGGAUGCAGAGGAGUCAGGCUUCGGUGCCGCGAUAGCGCCAACGGCCUCAACCUCCAAUGCAUCUCACCACAUGAUGAUGCCUGAAGAGCCUUGGUUUUUUG, the “polymerase ribozyme fitness (log ratio)” value was -5.49.
For GACCAAUCUGCCCUCAGAGCUCGAGAACAUCUUCGGAUGCAGAGGAGGCAGGCUUCGGUGGCGAGAUAGCGCCAACGUCCUCAACCUCCGAUGCAUCCCACCACAUGAUGAGGCCUGAAGAGCCUUGGUUUUUUG, the “polymerase ribozyme fitness (log ratio)” value was -5.49.
With GACCAAUCUGCCCUCAGAGCUCGAGAACAUCUUCGGAUGCAGAGGAGGCAGACUUCGGUGGCGCGAUAGCGGCAACGUCCUCAACCUCCAAUGCCUCCCACCACAUGAUGAUGCCUGAAGAGCCUUGGUUUUUUG the “polymerase ribozyme fitness (log ratio)” value was -2.
For GACCAAUCUGCCCUCAGAGCUCGAGAACAUCUUCGGAUGCAGAGGAGGCAGGCUUCGGUGGCGCGAUAGGGCCAACGUCCUCAACCUCCAAUGCAUCCCACCACGUGAUGAUUCCUGAAGAGCCUUGGGUUUUUG, the “polymerase ribozyme fitness (log ratio)” value was -6.51.
For GACCAAUCUGCCCUCAGAGCUCGAGAACAUCGUCGGAUGCAGAGGAGGCAGGCUUCGGUGGCGCGAUAGCGCCAACGUCCUCAACCUCCAAUGCAUCCCACCACAUGAUGAUGCCUGAAGAGCCUUGGUUUUUUG, the “polymerase ribozyme fitness (log ratio)” value was -6.71.
With GACCAAUCUGCCCUUAGAGCUCGAGAACAUCUUCGGAUACAGAGGAGGCAGGCUUCGGUGGCGCGAUAGCGCCAACGUCCUCAACCUCCAAUGCAUCUCACCACAUGAUGAUGCCUGAAGAGCCUUGGUUUUUUG the “polymerase ribozyme fitness (log ratio)” value was -3.87.
For GUCCAAUCUACCCUCAGAGCUCGAGAACAUCUUCGGAUGCAGAGGAGGCAGGCUUCGGUGGCGCGAUAGCGCCAACGUCCUCAACCUCCAAUGCAUCCCACCACAUGAUGAUGCCUGAAGAGCCUUGGUUUUUUG, the “polymerase ribozyme fitness (log ratio)” value was -2.85.
In the case of GACCAAUCUGGCCUCAGAGCUCGAGAACAUCAUCGGAUGCAGAGGAGUCAGGCUUCGGUGGCGAGAUAGCGCUAACGUCCUCAACCUCCAAUGCAACCCACCACAUGAUGAUGCCUGAAGAGACUUGGUUUUUUG, the “polymerase ribozyme fitness (log ratio)” value is reported as -7.31.
With GACCGAUCUGCCCUCAGAGCUCGAGAACAUCUUCGGAUGCAGAGGAGGCAGGCUUCGGUGGCGCGAUAGCGCCAACGUCCUCAACCUCCAUUGCAUCCCACCACAUGAUGAUGCCUGAAGAGCCUUGGUUUUUUG the “polymerase ribozyme fitness (log ratio)” value was -1.78.
For GACCAAUCUGCCCGCAGAGCUCGAGAGCAUCUUCGGAUGCAGAGGAGGCAGGCUUCGGUGGCGCGAUAGCGCCAACGUCCUCAACCUCCAAUGCAUCCCACCACAUGAUGAUACCUGAAGGGCCUUGGUUUUAUG, the “polymerase ribozyme fitness (log ratio)” value was -1.42.
In the case of GACCAAUCUGCCCUUAGAGCUCGAGAACAUCUUUGGAUGCAGAGGAGGCAGGCUUCGGUGGCGCGAUAGCGCCAACGUCCUCAACCUCCAAUGCAUCCCACCACAUGAUGAUGCCUGAAGAGCCUUGGUUUUUUG, the “polymerase ribozyme fitness (log ratio)” value is reported as -4.93.
With GACCAAUCUGCCCUCAGUGCUCGAGAACAUCUUCGGAUGCAGAGGAGGCAGCCUUCGGUGCCGCGAUAGCGCCAACGUCCUCAACCCCCAAUGCAUCCCACCACAUGAUGAUGCCUGAACAGCCUUGGUUUUUUG the “polymerase ribozyme fitness (log ratio)” value was -4.57.
For GACCAAUCUGCCCUCAGAGCUCGAGAACAUCUUCGGAUGAAGAGGAGGCAGGCUUCGGUAGCGCGAUAGCGCCAACGUCCACAACCUCCAAUGCAUCCCACCACAUGAUGAUGCCUGAAGAGCCUUGGUUUUUUG, the “polymerase ribozyme fitness (log ratio)” value was -2.66.
In the case of GACCAAUCUGUCCUCAGAGCUCGAGAACAUCUUCGGAUGCAGAGGAGGCAGGGUUCGGUGGCGCGAUAGCGCCAACGUCCUCAACCUCCAAUGCAUCCCACCACAUGAUGAUGCCUGAAGAGCCUUGGUUUUUUG, the “polymerase ribozyme fitness (log ratio)” value is reported as -0.654.
For GACCAAUCUGCCCUCAGAGCUCGAGAACAUCUUCGGAUGCAGAGGAGGCAGGCUUCGGUGGCGCGAUAGCGCCAACGUCCUCAACCUCCAAUGCAUCCCACCACCUGAUGAUGCUUGAAGAGCCUUGGUUUUUUG, the “polymerase ribozyme fitness (log ratio)” value was -4.02.
In the case of GACCAAUCUGCCCUCAGAGCUCGAGAACAUCUUCGGAUGCAGACGAGGCAGGCUUCGGUGGCGCGAUAGCGCCAACGUCCUCAACCUCCAAUGCAUCCCACCACAUGAUGAUGCCGGAAGAGCGUUGGUUUUUUG, the “polymerase ribozyme fitness (log ratio)” value is reported as -3.04.
In the case of GACCUAUCUGCCCUCAGAGCUCGAGAACAUCUUCGGAUGCAGAGGUGGCAGGCUUCGGUGGCGCGAUAGCCCCAACGUCCACAACCUCCAAUGCAUCCCACCACAUGAUGAUGCCUGAAGAGCCUUGGUUUUUUG, the “polymerase ribozyme fitness (log ratio)” value is reported as -4.5.
With GACCAAUCUGCCCUAAGAGCUCGAGACCAUCUUCGGAUGCAGAGGAGGCAGGCUUCGGUGGCGCGAUAGCGCCAACGUCCUCAACCUCCAAUGCAUCCCACCACAUGAUGAUGCCUGAAGAGCCUUGGUUUUUUG the “polymerase ribozyme fitness (log ratio)” value was -4.33.
